Reference: patent US20100168016A1, “DIAGNOSIS AND TREATMENT OF DISEASES CAUSED BY MISFOLDED PROTEINS” (THE JACKSON LABORATORY, priority 2007, published 2010)

What was measured:
sti/sti Purkinje cells [1] = test: ubiquitinated protein inclusions in sti/sti Purkinje cells; type: in vivo, mouse; details: sti/sti mice, 4, 6 and 12 weeks of age
Excerpt: FIGS. 9A and B. Graphs illustrating that the expression of full length ANKRD16 reduces protein inclusions in sti/sti Purkinje cells. Sti/sti means homozygous sticky mice (B6.Cg-Aarssti/J). ANKRD16; sti/sti means homozygous sticky mice intercrossed with mice expressing full length ANKRD16. […] 4W means brains were isolated from 4 week old mice, 6W for 6 week old mice and 12 W for 12 week old mice.
Brains from homozygous sticky mice (sti/sti; B6.Cg-Aarssti/J; available from The Jackson Laboratory Stock Number 002560) and sticky mice intercrossed with transgenic mice expressing the full length ANKRD16, were isolated at the age of 4 weeks, 6 weeks and 12 weeks. The brains were processed for sectioning and antibody staining using standard histological methods. Sagittal sections were prepared and immunostained with antibodies against ubiquitin and calbindin. The antibodies against calbidin D-28 were used to visualize Purkinje cells. The antibodies against ubiquitin were used to visualize ubiquitinated protein aggregates. Purkinje cells with ubiquitinated aggregates were counted from three sections spaced at 100 micrometer beginning at midline and working laterally per mouse. Three mice from each genotype were analyzed. The total number of Purkinje cells with inclusions as well as the % of remaining Purkinje cells with inclusions are shown in the graphs in FIGS. 9A and 9B.

sticky mutant mice = test: fertility (number of live offspring) of sticky mutant mice; type: in vivo, mouse; details: ANKRD16^CAST crossed into sti/sti; 7 matings, females 8-9 weeks
Experimental: FIGS. 7. A graph depicting litter size (y axis) in WT, STIM and STI mice (x axis). Expression of ANKRD16 protein can restore the reduced fertility in sticky mutant mice. “WT” refers to C57BL/6J wild type mice, “STIM” refers to sticky mutant mice carrying the modifier gene ANKRD16, and STI means homozygous sticky mutant mice.
Female mice of the various genotypes at the age of at 8-9 weeks were mated and the fertility was determined by counting the number of live offspring. When mating C57BL/6J mice (WT), which are wild type, the average litter size was 6.87 from 8 matings with a total of 55 offspring. […] When the modifier gene ANKRD16^CAST was crossed into the sti/sti mutations, the litter size was restored to normal with 6.51 pups from 7 matings with a total of 46 offspring. […] The CAST ANKRD16 is the full length version of ANKRD16, also called ANKRD^361.

[2] = tested on: mouse embryonic fibroblasts; test: epoximicin-induced cell death of mouse embryonic fibroblasts (propidium iodide, FACS); type: cell-based; details: epoximicin 400 nM to 2500 nM for 18 hours
Experimental: FIG. 14. […] Fibroblasts with different genotypes were compared: WT means C57BL/6J; UbG76VGFP transgenic and ANKRD16^CAST UbG76V-GFP double transgenic.
Mouse embryonic fibroblasts were treated with 1.5 uM epoximicin for 6 hours before the GFP (green fluorescent protein) levels were analyzed by fluorescence microscopy (data not shown) or fluorescence-activated cell sorting (FACS) analysis (FIG. 13). Mouse embryonic fibroblasts not expressing the ANKRD16^CAST allele show a higher GFP level. […] The proteasome inhibitor epoximicin prevents the rapid degradation of GFP in the proteasome. […] Further the embryonic fibroblasts from the C57BL/6J wild type (WT), UbG76V-GFP transgenic and UbG76V-GFP; ANKRD16^CAST double transgenic mice were treated with various concentrations of epoximicin for 18 hours. The epoximicin concentrations ranged from 400 nM to 2500 nM (see FIG. 14). Fibroblasts were stained with propidium iodide to evaluate the percentage of cell death by FACS analysis.

[3] = tested on: ubiquitin/proteasome pathway; test: UbG76V-GFP proteasome reporter in mouse embryonic fibroblasts (FACS); type: cell-based; details: ANKRD16^CAST double transgenic fibroblasts, 1.5 uM epoximicin for 6 hours
Experimental: FIG. 13. […] Mouse embryonic fibroblasts were analyzed from UbG76V-GFP transgenic and UbG76V-GFP; ANKRD16^CAST double transgenic mice; untreated and treated with 1000 nM epoximicin for 6; 12 or 18 hours (hr). The presence of the ANKRD16^CAST allele leads to reduced GFP intensity which correlates with increased proteasome activity.
Two lines of transgenic mice, UB^G76V-1 and UB^G76V-2, were generated with a ubiquitin-fusion GFP driven by the chicken β-actin promoter (Lindsten et al., 2003a; Lindsten et al., 2003b). UbG76V-GFP transgenic mice are available from The Jackson Laboratory (stock number 008111 and 008112). These mice ubiquitously express transcripts for the transgene, but as expected from the short half-life of the modified GFP protein, GFP is undetectable in all tissues analyzed. […]
UbG76V-GFP transgenic mice were intercrossed with the BAC transgenic mice carrying the CAST allele of ANKRD16, which gives rise to full length ANKRD16 mRNA and protein, yielding in double transgenic called UbG76V-GFP; ANKRD16^CAST. […] Using Western blot analysis the expression of ANKRD16 was analyzed showing an upregulation of ANKRD16 in the double transgenic mice UbG76V-GFP; ANKRD16 6^CAST. […]

[4] = tested on: sti/sti embryonic fibroblasts; test: serine-induced cell death in embryonic fibroblasts; type: cell-based, mouse; details: ANKRD16^CAST/+; sti/sti fibroblasts vs sti/sti, increasing serine
Excerpt: FIG. 5. A graph depicting viability curves for mouse embryonic fibroblasts (MEFs) with increasing concentrations of serine in the culture media. ANKRD 16 (Stim^CAST) rescues serine-mediated cell death in sti/sti fibroblasts.
We analyzed serine-induced cell death in +/+, ANKRD16^CAST/+; sti/sti, and sti/sti embryonic fibroblasts. Mouse embryonic fibroblasts were isolated from mouse embryos carrying no mutation (WT; C57BL/6J), the CAST-derived ANKRD16 gene (ANKRD16^CAST/+) and the sticky (sti/sti) mutation, or carrying the C57BL/6 ANKRD16 gene and the sti mutation (sti/sti).

sti/sti Purkinje cells [5] = test: Purkinje cell survival in sti/sti mice carrying the Pcp2-driven ANKRD16 transgene; type: in vivo, mouse
Excerpt: To determine if ANKRD16 can rescue neuron death in a cell autonomous fashion, we transgenically expressed the ANKRD16 cDNA in Purkinje cells and examined the role of this transgene in Purkinje cell survival in sti/sti mice. ANKRD16 coding sequence was amplified by polymerase chain reaction from cDNA by using Pfu DNA polymerase (Stratagene), purified by agarose gel electrophoresis and ligated into the expression vector. Transgenic (TgPcp2-ANKRD16) mice carrying the full-length ANKRD16 cDNA (ANKRD16^361 or CAST allele) were generated on the inbred C57BL/6J background by microinjection of the purified DNA into C57BL/6J zygotes.

B1: ANKRD16^CAST: full length (361 amino acid) ANKRD16 from the CAST allele, expressed from congenic region or transgene in mice and cells (protein)
chain: MALPGDPRRLCRLVQEGRLRDLQEELAVARGCRGPAGDTLLHCAARHGRQDILAYLVEAWSMDIEATNRDYKRPLHEAASMGHRDCVRYLLGRGAVVDSLKKADWTPLMMACTRKNLDVIQDLVEHGANPLLKNKDGWNSFHIASREGHPVILRYLLTVCPDAWKTESNIRRTPLHTAAMHGCLEAVQVLLERCHYEPDCRDNCGVTPFMDAIQCGHVSIAKLLLEQHKACSSAADSMGAQALHRAAVTGQDEAIRFLVCGLGIDVDVRAKSSQLTALHYAAKEGQTNTVQTLLSLGADINSTDERNRSVLHLACAGQHVACTRLLLQSGLKDSADLTGTLAQQLMRSVDILQDFDHDVKS
- Purkinje cells with protein aggregates (sti/sti Purkinje cells [1]): reduces Purkinje cells with protein aggregates
- litter size (sticky mutant mice): 6.51 pups
- cell death [2]: reduced cell death
- green fluorescence from GFP [3]: greatly reduced
- rescue from serine-induced cell death [4]: completely rescued
- ataxia (sti/sti Purkinje cells [5]; sti/sti mice carrying the transgene, 3 months of age): no signs of ataxia
- Purkinje cell death (calbindin D-28 immunohistochemistry) (sti/sti Purkinje cells [5]; sti/sti mice, Pcp2 (L7) promoter): suppression of Purkinje cell death
